Assay [1] relates to ERK or Akt. Description: Western blot of phosphorylation of intracellular signaling proteins ERK or Akt in aortic valve vascular smooth muscle tissue. The assay is classed as in vivo. Particulars: eNOS-deficient mice treated with IGF-1 and DPP-4, 0, 5, 15 or 30 minutes; FIG. 2b. As for the experimental part:
Further, in order to confirm whether the activation level of the protein involved in intracellular signaling was changed by osteocytogenesis according to DPP-4, the eNOS-deficient mice were treated with IGF-1 alone for 0, 5, 15 or 30 minutes, or treated with DPP-4 and IGF-1 at the same time, and then, the aortic valve vascular smooth muscle tissue was extracted from these mice. Then, a phosphorylation level of ERK or Akt which is a protein involved in intracellular signaling expressed in the extracted tissues was compared by western blot analysis (FIG. 2b). Here, β-actin was used as an internal control group.
FIG. 2b is a Western blot analysis image showing a change in the phosphorylation level of ERK or Akt which is the protein involved in intracellular signaling according to whether the DPP-4 is treated in the eNOS-deficient mice treated with IGF-1.
(In general: A western blot detects proteins with antibodies after separation by electrophoresis.)

Assay [2] relates to aortic valve vascular smooth muscle tissue. Description: ALP staining of aortic valve vascular smooth muscle tissue, osteocytogenesis level. The assay is classed as in vivo, mice. Particulars: wild-type or eNOS-deficient mice treated with DPP-4 and IGF-1 at the same time; FIG. 2a. As for the experimental part: Wild-type mice or eNOS-deficient mice which are animal models with the aortic valve calcification were treated with insulin-like growth factor type 1 (IGF-1) alone or treated with dipeptidyl-peptidase 4 (DPP-4) and IGF-1 at the same time. Then, ALP staining was performed on the aortic valve vascular smooth muscle tissue, thereby comparing the […] level of tissue (FIG. 2a). Here, the aortic valve vascular smooth muscle tissue of the wild-type mice treated with nothing or the eNOS-deficient mice was used as a control group.
FIG. 2a are an image and a graph showing verification of the effect of DPP-4 on an action of IGF-1 inhibiting osteocytogenesis in the aortic valve vascular smooth muscle tissue of the wild-type mice or the eNOS-deficient mice.

B1: DPP-4: antigenic enzyme, membrane-bound glycoprotein, also referred to as CD26; cleaves two N-terminal peptides including proline (protein)
chain: NKGTDDATADSRKTYTLTDYLKNTYRLKLYSLRWISDHEYLYKQENNILVFNAEYGNSSVFLENSTFDEFGHSINDYSISPDGQFILLEYNYVKQWRHSYTASYDIYDLNKRQLITEERIPNNTQWVTWSPVGHKLAYVWNNDIYVKIEPNLPSYRITWTGKEDIIYNGITDWVYEEEVFSAYSALWWSPNGTFLAYAQFNDTEVPLIEYSFYSDESLQYPKTVRVPYPKAGAVNPTVKFFVVNTDSLSSVTNATSIQITAPASMLIGDHYLCDVTWATQERISLQWLRRIQNYSVMDICDYDESSGRWNCLVARQHIEMSTTGWVGRFRPSEPHFTLDGNSFYKIISNEEGYRHICYFQIDKKDCTFITKGTWEVIGIEALTSDYLYYISNEYKGMPGGRNLYKIQLSDYTKVTCLSCELNPERCQYYSVSFSKEAKYYQLRCSGPGLPLYTLHSSVNDKGLRVLEDNSALDKMLQNVQMPSKKLDFIILNETKFWYQMILPPHFDKSKKYPLLLDVYAGPCSQKADTVFRLNWATYLASTENIIVASFDGRGSGYQGDKIMHAINRRLGTFEVEDQIEAARQFSKMGFVDNKRIAIWGWSYGGYVTSMVLGSGSGVFKCGIAVAPVSRWEYYDSVYTERYMGLPTPEDNLDHYRNSTVMSRAENFKQVEYLLIHGTADDNVHFQQSAQISKALVDVGVDFQAMWYTDEDHGIASSTAHQHIYTHMSHFIKQCFSLP
B1: the “phosphorylation level of ERK or Akt” value in assay [1] is given as “reduced”. In assay [2], the “osteocytogenesis of aortic valve vascular smooth muscle tissue (ALP staining)” value is “intensified”.

Source of the values: patent US20180031580A1, “USE OF IGF-1 AS PROGNOSTIC FACTOR IN CALCIFICATION OF AORTIC VALVES” (THE ASAN FOUNDATION, priority 2015, published 2018).
